This note sets out measurements from publication PMC4164784, “4E-BPs require non-canonical 4E-binding motifs and a lateral surface of eIF4E to repress translation” (Nature Communications, 2014).

No end group written: not given here.

Experiment [1] deals with T1, Dm eIF4E (residues 69–248, WT) (Drosophila melanogaster, UniProt P48598).
T1 construct: The truncated His6-eIF4E (residues 69–248) that was used in the ITC experiments; His6 (N, cleaved yes); made in house; host or cells: E. coli BL21 Star (DE3)
T1 sequence (P48598 69-248 isoform P48598-2): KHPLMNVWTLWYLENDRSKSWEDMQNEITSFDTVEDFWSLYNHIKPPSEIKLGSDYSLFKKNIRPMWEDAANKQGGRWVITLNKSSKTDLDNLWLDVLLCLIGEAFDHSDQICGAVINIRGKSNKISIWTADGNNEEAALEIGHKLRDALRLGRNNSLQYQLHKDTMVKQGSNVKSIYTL
The experiment can be described thus: ITC, binding to eIF4E (WT, residues 69–248). To be noted: for KD: VP-ITC, 20 mM Na-phosphate (pH 7.0), 150 mM NaCl, GB1-fused peptides (C+NC 10 μM, C 50 μM, L+NC 100 μM CUP or 200 μM Thor and 4E-T, eIF4G 20 μM) into eIF4E WT 1–20 μM, one-site model, each experiment repeated twice, nb = no binding; for KD / Molar ratio / TΔS / ΔG / ΔH: 20 °C; for Molar ratio / TΔS / ΔG / ΔH: eIF4E WT (69–248), pH 7.0, nb = no binding. How it is done:
Unless indicated otherwise, all the proteins were expressed in E. coli BL21 Star (DE3) cells (Invitrogen) that were grown in LB medium overnight at 20 °C. The lysis buffers were supplemented with DNaseI (5 μg ml^−1), lysozyme (1 mg ml^−1) and protease inhibitor cocktail (Roche). The truncated His6-eIF4E (residues 69–248) that was used in the ITC experiments and in Figs 2c and 5b was purified in lysis buffer containing 50 mM HEPES (pH 7.2), 300 mM NaCl, 20 mM imidazole and 2 mM β-mercaptoethanol using Ni^2+-affinity chromatography (HisTrap HP 5 ml, GE Healthcare) and eluted with a gradient of 20–500 mM imidazole. After the cleavage of the His6-tag with HRV3C protease (homemade), the protein was further purified using a heparin column (HiTrap Heparin HP 5 ml, GE Healthcare), followed by size exclusion chromatography (Superdex 75 16/60, GE Healthcare) in 20 mM Na-phosphate (pH 7.0), 300 mM NaCl and 2 mM dithiothreitol (DTT).
For the ITC measurements and the competition assays shown in Figs 4 and 5d–g, the 4E-BP peptides corresponding to the canonical (C) motifs, the combined (C+NC) motifs or L+NC were expressed with an HRV3C cleavable N-terminal MBP-tag and a non-cleavable C-terminal GB1 domain. The cells were lysed by sonication in lysis buffer containing 50 mM HEPES (pH 7.2), 300 mM NaCl and 2 mM DTT. The proteins were purified from the cleared lysates using amylose resin (New England Biolabs) followed by the cleavage of the MBP tag with HRV3C protease overnight at 4 °C. The proteins were further purified by size exclusion chromatography (Superdex 75 16/60, GE Healthcare) in 20 mM Na-phosphate (pH 7.0), 300 mM NaCl and 2 mM DTT. For the eIF4G fragment (residues 578–650) the MBP was removed after cleavage with TEV protease through an additional anion exchange chromatography (HiTrap Q HP 5 ml, GE Healthcare) before the final gel filtration.
The ITC experiments were performed using a VP-ITC microcalorimeter (MicroCal) at 20 °C. The solution of eIF4E (residues 69–248, WT or mutant: 1–20 μM) in the calorimetric cell was titrated with tenfold concentrated solutions of GB1-stabilized peptides corresponding to 4E-BPs C+NC (10 μM), C (50 μM), L+NC (100 μM CUP, 200 μM Thor and 4E-T) or eIF4G (residues 578–650, 20 μM) that were dissolved in the same buffer (20 mM Na-phosphate (pH 7.0) and 150 mM NaCl). The titration experiments consisted of an initial injection of 2 μl followed by 28 injections of 10 μl at an interval of 240 s. Each binding experiment was repeated twice. The thermodynamic parameters were estimated using a one-site binding model (Origin version 7.0), whereby the datapoint of the first injection was removed for the analysis.
(d) minimal regions for binding to eIF4E (wild-type (WT), residues 69–248). The top panels represent the raw data (μcal sec−1) whereas the bottom panels show the integrated data (kcal mole−1 of injectant) of heat changes that were best-fitted using a one-site binding model. The thermodynamic parameters correspond to heat changes that were detected when 4E-BPs (10 µM) or eIF4G (20 µM) were injected into the calorimetric cell (1.4 mL) containing 1 µM (a,b,c) or 2 µM (d) eIF4E.
Supplementary Figure 4. Thermodynamic parameters for the interaction of eIF4E with 4E-BP peptides. (a–f) ITC profiles for the interaction of eIF4E (WT, residues 69-248) and CUP (a,d), Thor (b,e) and 4E-T (c,f) peptides containing only the canonical motifs (a–c) or the L+NC regions (d–f). The measurements were performed as described in Supplementary
Fig. 3. The solutions contained the peptides corresponding to the canonical motifs (50 µM) or the L+NC regions (100 µM for CUP and 200 µM for Thor and 4E-T). The eIF4E concentration in the calorimetric cell was 5 µM (for the C peptides), 10 µM (for CUP L+NC) and 20 µM (for Thor and 4E-T L+NC peptides).
(1 picture or pasted object on this page, not shown here)
(In general: In ITC the heat of successive injections is recorded.)

Experiment [2] relates to endogenous eIF4E and HA-tagged 4E-BPs in S2 cells. The experiment in a line: Immunofluorescence localization in S2 cells. The experiment is classed as cell-based, Drosophila melanogaster. To be noted: −LMB. How it is done: S2 cells expressing HA-tagged versions of CUP, Thor and 4E-T or the indicated mutants were treated with Leptomycin B (100 nM; Sigma) or methanol as a control for 12 h. After the LMB treatment, the cells were allowed to adhere to poly-D-lysine–coated coverslips for 15 min and were fixed with 2% paraformaldehyde for 10 min. The cells were then permeabilized with 0.1% Triton X-100 in PBS (10 min) and stained with affinity-purified monoclonal anti-HA (Covance 1:1,000) and polyclonal anti-eIF4E (1:2,000) antibodies in PBS containing 1% BSA for 1 h. Alexa Fluor 594-labeled goat anti-rabbit and 488-labeled anti-mouse antibodies (Invitrogen) were used at dilutions of 1:1,000 and 1:2,000, respectively. The cells were mounted using Fluoromount-G (Southern Biotech). The images were acquired at room temperature using a confocal microscope (TCS SP2; Leica) that was fitted with a Plan-Apochromat × 100 NA 1.40 oil immersion objective and a series of three photomultipliers (Hamamatsu Photonics) controlled with the Leica confocal software (version 2.61). The images were prepared using Photoshop (Adobe). […]
Thor) independent experiments. […] Confocal fluorescent […]
micrographs of fixed S2 cells expressing HA-4E-T and GFP-Tral. The localization of HA-4E-T was determined by indirect immunofluorescence using an anti-HA antibody. The merged pictures show the HA signal in red and the GFP-Tral signal in green. Bar: 5 μm.

For experiment [3], the target named is T2, eIF4E (residues 69–248), purified (Drosophila melanogaster, UniProt P48598-2 69-248).
T2 construct: eIF4E, Drosophila melanogaster, residues 69–248; the methods say the tag was cleaved with HRV3C; also called truncated eIF4E; eIF4E trunc; not shown: His6, N-terminal, cleaved
T2 sequence (looked up): T1 sequence (P48598 69-248 isoform P48598-2)
The experiment can be described thus: ITC; VP-ITC, 20 °C; eIF4E (69–248, WT or mutant, 1–20 μM) in the cell, tenfold concentrated GB1-stabilized peptides titrated in; 20 mM Na-phosphate pH 7.0, 150 mM NaCl; one-site binding model. To be noted: both partners purified.

Take “4E-T L+NC: 4E-T residues 22–44, linker+non-canonical”: in experiment [1], the KD entry was “nb”, the Molar ratio result is on record as “nb”, the TΔS entry is “nb” and the ΔG result is “nb”. The ΔH result in experiment [1] is listed as “nb”.

For the molecule “4E-T NC: 4E-T residues 31–44, non-canonical motif”, in experiment [2] (S2 cells overexpressing 4E-BP or mutant), the “localization of endogenous eIF4E (in words)” value is reported as “the number of eIF4E-positive P-bodies was reduced”. Further, the “localization of the 4E-BP (in words)” value in experiment [2] (S2 cells, steady-state) was “still localized to P-bodies”.

In the case of “CUP L+NC: CUP residues 342–376, linker+non-canonical, C-terminal GB1 (ALMHRSKESFVMPRIATCDDIELEGRLRRMNIWRT-GB1; UniProt Q9VMA3 342-376, looked up, fragment)”, in experiment [1] (eIF4E WT), the “KD of L+NC relative to C motif (in words)” value was “comparable to that of the C motif” and the “binding thermodynamics (in words)” value is reported as “enthalpically driven”. In addition, in experiment [1], the TΔS is -38.1 kJ/mol and the ΔG was -39.2 kJ/mol. In addition, in experiment [1] (eIF4E WT, L+NC peptides), the “interaction with eIF4E (in words)” value was “interacted with eIF4E at detectable levels”.

Regarding “Thor L+NC: Thor residues 64–83, linker+non-canonical”, in experiment [1], the KD result is reported as “nb”, the Molar ratio result is given as “nb”, the TΔS result is listed as “nb” and the ΔG entry is on record as “nb”. Moreover, in experiment [1], the ΔH result is listed as “nb”.

As a reminder, the Kd is the free concentration of one partner at which half of the binding sites on the other are occupied at equilibrium, for simple one-to-one binding. A high value points to lower affinity. By stoichiometry N is commonly meant a count of units in the complex or per binding partner. Turning to KSYTRSRLMDIRNGMFN (domain or fragment) [CUP C peptide fused C-terminally to GB1], in experiment [3], binding was characterised by a dissociation constant (Kd) of 0.16 µM, the dH is -70.46 ± 0.167 kJ/mol and the “stoichiometry N” value came to 1.01 ± 0.01.

Turning to ALMHRSKESFVMPRIATCDDIELEGRLRRMNIWRT (domain or fragment) [CUP L+NC peptide fused C-terminally to GB1], in experiment [3], the affinity, expressed as Kd, was 0.103 µM; the dH is -77.4 ± 0.837 kJ/mol; the “stoichiometry N” value was determined as 0.98 ± 0.01.

Regarding TKLIYERAFMKNLR (domain or fragment) [Thor C peptide fused C-terminally to GB1], in experiment [3], binding was characterised by a dissociation constant (Kd) of 2.26 µM, the dH was -50.6 ± 11.7 kJ/mol and the “stoichiometry N” value was determined as 1.06 ± 0.01.

Consider RYSKVDLLALRYE (domain or fragment) [4E-T C peptide fused C-terminally to GB1], for which, in experiment [3], the Kd was found to be 0.016 µM, the dH was -77.8 ± 2.93 kJ/mol and the “stoichiometry N” value amounted to 0.95 ± 0.01.
